This passage reports Kd results from publication PMC11239949.

Data set [1] concerns the target Mucin 1 (MUC1) on MCF-7 cells; aptamer designed against the VNTR region (UniProt P15941). The data set can be described thus: whole-cell capture on magnetic beads (fluorescence). The following applies: multivalent (apparent), 5x10^4 DAPI-stained MCF-7 cells added to 500 uL A-f-M13-MB (resuspended in PBS), 30 min, 37 C, one-site fit over aptamer concentration.
For data set [2] the target is unchanged. Kind of data set: whole-cell fluorescence binding. The following applies: DBCO or NH2 at 5' (which version was used as free aptamer is not stated); 5x10^4 DAPI-stained MCF-7 cells added to 500 uL A-f-M13-MB (resuspended in PBS), 30 min, 37 C; one-site fit over aptamer concentration.

Sequence of UniProt P15941 (P15941 whole entry): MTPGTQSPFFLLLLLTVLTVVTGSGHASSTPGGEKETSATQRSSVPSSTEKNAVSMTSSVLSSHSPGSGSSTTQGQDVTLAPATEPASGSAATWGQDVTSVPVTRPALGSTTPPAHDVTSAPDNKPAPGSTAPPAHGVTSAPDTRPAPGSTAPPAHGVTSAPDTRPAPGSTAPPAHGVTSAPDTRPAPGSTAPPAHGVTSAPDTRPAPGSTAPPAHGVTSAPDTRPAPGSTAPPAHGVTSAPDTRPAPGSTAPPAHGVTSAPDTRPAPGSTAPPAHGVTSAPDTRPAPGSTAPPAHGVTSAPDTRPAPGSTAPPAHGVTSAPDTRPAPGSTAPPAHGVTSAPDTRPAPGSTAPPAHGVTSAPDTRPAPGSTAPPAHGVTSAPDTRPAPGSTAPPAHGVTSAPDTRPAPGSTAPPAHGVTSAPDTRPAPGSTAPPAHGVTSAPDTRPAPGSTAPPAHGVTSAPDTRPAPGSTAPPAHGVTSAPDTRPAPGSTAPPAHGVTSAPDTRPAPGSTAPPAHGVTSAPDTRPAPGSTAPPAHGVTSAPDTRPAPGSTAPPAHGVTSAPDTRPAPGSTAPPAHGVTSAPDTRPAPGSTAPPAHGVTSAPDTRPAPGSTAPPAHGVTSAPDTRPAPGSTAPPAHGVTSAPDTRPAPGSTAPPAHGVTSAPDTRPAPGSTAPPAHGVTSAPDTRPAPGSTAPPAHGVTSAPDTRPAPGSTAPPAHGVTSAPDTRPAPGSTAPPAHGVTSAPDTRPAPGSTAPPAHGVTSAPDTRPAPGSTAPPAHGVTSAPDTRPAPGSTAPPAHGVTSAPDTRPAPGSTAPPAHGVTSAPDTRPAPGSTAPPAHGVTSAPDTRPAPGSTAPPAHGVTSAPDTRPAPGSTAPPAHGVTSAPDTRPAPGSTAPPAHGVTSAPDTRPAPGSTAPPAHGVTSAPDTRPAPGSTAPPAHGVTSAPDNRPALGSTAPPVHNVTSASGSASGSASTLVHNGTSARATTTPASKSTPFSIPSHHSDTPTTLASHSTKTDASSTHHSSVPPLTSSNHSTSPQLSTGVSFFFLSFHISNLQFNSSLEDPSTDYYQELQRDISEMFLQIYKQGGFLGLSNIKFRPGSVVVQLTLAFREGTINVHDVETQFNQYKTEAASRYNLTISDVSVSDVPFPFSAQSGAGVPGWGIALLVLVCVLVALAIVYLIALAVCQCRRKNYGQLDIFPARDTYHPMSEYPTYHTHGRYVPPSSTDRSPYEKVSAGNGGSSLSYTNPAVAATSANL

Turning to “TTTTTGCAGTTGATCCTTTGGATACCCTGG [NH2-Apt (S2.2) on magnetic beads]”, the Kd in data set [1] (A-MB, 5' NH2, coupled to carboxyl magnetic beads) is 21 nM.

For “TTTTTGCAGTTGATCCTTTGGATACCCTGG [DBCO-Apt (S2.2) clicked on M13 pVIII]”, the Kd in data set [1] (A-f-M13-MB, flexible phage, 5' DBCO, coupled to N3-PEG on M13 phage sidewall) stood at 0.00109 nM; in data set [1] (A-r-M13-MB, PFA-treated rigid phage, 5' DBCO, coupled to N3-PEG on M13 phage sidewall), 0.0248 nM.

“TTTTTGCAGTTGATCCTTTGGATACCCTGG [S2.2 aptamer, free (FAM-labelled)]”: in data set [2], the Kd is 260 nM.
